The source of these data is patent US20120093811A1 (published 2012).

Broadly, the Kd is the free concentration of one partner at which half of the binding sites on the other are occupied at equilibrium, for simple one-to-one binding. By koff is commonly meant a measure of how fast the partners let go of each other. The term kon denotes a measure of how fast the partners come together.

Test [1] has as its target T1, Source 1 VEGF-D, mature dimeric recombinant human VEGF-D (CSIRO) (human, UniProt O43915 89-205).
T1 sequence: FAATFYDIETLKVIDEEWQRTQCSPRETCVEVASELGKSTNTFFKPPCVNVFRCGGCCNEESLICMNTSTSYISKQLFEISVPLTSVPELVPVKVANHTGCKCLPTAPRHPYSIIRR
The experiment in a line: cell-based or functional assay.

Test [2] has as its target T2, Source 2 VEGF-D, purified recombinant human VEGF-D monomer (R&D Systems, Catalog Number 622-VD/CF) (human, UniProt O43915 93-201).
T2 sequence: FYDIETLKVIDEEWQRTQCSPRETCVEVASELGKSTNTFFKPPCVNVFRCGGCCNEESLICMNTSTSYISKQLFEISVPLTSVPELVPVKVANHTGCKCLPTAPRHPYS
As to the kind of experiment: cell-based or functional assay.

The target of test [3] is T2, Source 2 VEGF-D, purified recombinant …. The experiment in a line: SPR, KD against that of Ig-1A.
For test [4] the target is unchanged. The experiment in a line: SPR, IgG captured by anti-human IgG (Fc), Source 2 VEGF-D monomer as analyte. (In general: SPR reads the build-up and loss of mass on a sensor chip optically.)
The target in test [5] is T1, Source 1 VEGF-D, mature dimeric …. As to the kind of experiment: SPR Protocol A, KD against that of Ig-1A. Here is the method: (§1) Protocol A: The first assay format, Protocol A, used an assay system where IgGs were captured on a biosensor chip surface using an anti-human IgG (Fc) antibody and the Source 1 VEGF-D dimer run over the chip as the analyte in solution. This ensured that all IgG molecules were presented to the antigen in an active orientation.
(§2) The SPR protocol was slightly modified to compensate for the dimeric nature of the VEGF-D. Ig-1A or IgG variants were analyzed using an anti-human capture kit as described for Anti-human IgG (Fc) capture above, except that 1000 RU of the IgG or IgG variant was captured on the anti-human chip surface. […] The kinetics generated using this approach are accurate within the experimental parameters set. This standard assay protocol is best suited to studying 1:1 interactions and thus, may not be ideal for analyzing binding between the IgG variants and the VEGF-D dimer. In light of this, Protocol B was also used.

The target is the same in test [6]. The experiment in a line: SPR Protocol B, KD against that of Ig-1A. How it is done: (§3) Protocol B: In the second assay format, Protocol B, the orientation of the IgGs and the VEGF-D antigen was reversed relative to Protocol A. The Source 1 VEGF-D dimer was immobilized directly on the chip surface by amine coupling and the murine anti-VEGF-D monoclonal antibody, Ig-1A or IgG variants flowed over this surface as analytes at concentrations of 4 nM, 1.33 nM, and 0.44 nM. This protocol allowed avidity effects to be controlled by reducing the density of dimeric VEGF-D immobilized on the chip and in effect reduce the bivalent binding properties of the system being analyzed.
(§4) All four flow cells on a CM5 chip were activated for 7 min at 25° C. using a mixture of NHS.EDC. Flow cell one was used as an unmodified (activated and blocked) reference against flow cells 2-4. Source 1 VEGF-D dimer was diluted to 1-3 μg/ml into 10 mM sodium acetate, pH 4, and injected over three surfaces for different lengths of time to achieve low ligand densities of 10, 15 and 20 RU to minimize avidity effects of the IgG. All surfaces were blocked for 7 min with ethanolamine (1M, pH 8.2) and pre-conditioned using five 10 s injections of 100 mM H₃PO₄; 1M NaCl. Immobilization steps were carried out at a flow rate of 30 μl/min using HBS-N running buffer.
(§5) All IgG binding experiments were performed at 25° C. using HBS-EP+ running buffer. Analytes (murine reference anti-VEGF-D monoclonal antibody and humanized variants) were injected for 200 s at a flow rate of 70 μl/min and dissociation monitored for 250 s. The antigen surfaces were regenerated with a 10 s pulse of 100 mM H₃PO₄; 1M NaCl. Analyte concentrations used for murine and humanized variants were 4 nM, 1.33 nM, and 0.44 nM. Data was processed using the reference surface and double referencing from blank injections. Binding constants for the IgG/antigen interactions were determined from the three antigen surfaces globally fitted to a 1:1 interaction model. Refractive index parameter was constant (RI=0).

For test [7] the target is unchanged. The experiment in a line: SPR Protocol B: VEGF-D dimer amine-coupled, IgG as analyte. How it is done:
as §3, §4, §5

For test [8] the target is unchanged. As to the kind of experiment: SPR Protocol A: IgG captured by anti-human Fc, VEGF-D dimer as analyte. How it is done: as §1, §2

B1: humanized IgG antibody derived from clone F61 (antibody, V domains shown)
VH: QVQLVQSGAEVKQPGASVKVSCKASGYTFTGYNMYWVRQAPGQGLEWMGYIDPYNGDTTYNQKFKGRVTMTTDTSTSTAYMKLRSLRSDDTAVYYCARTSYYGGMDYWGRGTLVTVAS
VL: DIVMTQTPLSSPVTLGQPASISCRSSQSLVHSNGNTYLHWLQQRPGQPPRLLIYKVSNRFSGVPDRFSGSGAGTDFTLKISRVEAEDVGVYYCSQSTHVPRTFGQGTKLEIKR
notes: IgG
For the molecule B1, in test [1], the “rank in the VEGFR-3-Ba/F3 bioassay” value is 5 rank. Besides, the “rank in the VEGFR-3-Ba/F3 bioassay” value in test [2] worked out at 8 rank. Also, the “Fold-improvement with respect to Ig-1A” value in test [3] was 1.8 fold. Moreover, in test [4], the dissociation constant Kd worked out at 5000 pM and the koff is 0.00824 s⁻¹.

B2: humanized IgG antibody derived from clone A63 (antibody, V domains shown)
VH: QVQLVQSGAKVKQPGASVKASCKASGYTFTGYNMYWVRQAPGQGLEWMGYIDPYNGDTTYNQKFKGRVTMTTDTSTSTAYMELRSLRSDDTAVYYCARTSYYGGMDYWGRGTLVTVAS
VL: DIVMTQTPLSSPVTLGQPASISCRSSQSLVHSNGNTYLHWLQQRPGQPPRLLIYKVSNRFSGVPDRFSGSGAGTDFTLKISRVEAEDVGVYYCSQSTHVPRTFGQGTKLEIKR
notes: IgG
Regarding B2, in test [3], the “Fold-improvement with respect to Ig-1A” value worked out at 1.3 fold. For the same molecule, in test [4], the Kd amounted to 7000 pM, the koff was 0.00677 s⁻¹ and the kon worked out at 970000 M⁻¹ s⁻¹.

B3: humanized IgG antibody derived from clone HH41 (antibody, V domains shown)
VH: QVQLVQSGAEVKQPGASVKVSCKASGYTFTGYNMYWVRQAPGQGLEWMGYIDPYNGDTTYNQKFKGRVTMTTDTSTSTAYMKLRSLRSDDTAVYYCARTSYYGGMDYWGRGTLVTVAS
VL: DIVMTQTPLSSPVTLGQPASISCRSSQSLVHGNGNTYLHWLQQRPGQPPRLLIYKVSNRFSGVPDRFSGSGAGTDFTLKISRVEAEDVGVYYCSQSTHVPRTFGQGTKLEIKR
notes: IgG; also called HH41#1; HH41#2
For the molecule B3, the “rank in the VEGFR-3-Ba/F3 bioassay” value in test [1] stood at 8 rank; in test [2], 6 rank. Moreover, the “Fold-improvement with respect to Ig-1A” value in test [5] was found to be 1.9 fold; in test [6], 4.9 fold. Besides, the Kd was 360 pM in test [7] and 364 pM in test [8]. Also, the koff is 0.0017 s⁻¹ in test [7] and 0.00019 s⁻¹ in test [8]. In addition, the kon was found to be 4.7e+06 M⁻¹ s⁻¹ in test [7] and 530000 M⁻¹ s⁻¹ in test [8].

B4: humanized IgG antibody derived from clone HH69 (antibody, V domains shown)
VH: QVQLVQSGAKVKQPGASVKASCKASGYTFTGYNMYWVRQAPGQGLEWMGYIDPYSGDTTYNQKFKGRVTMTTDTSTSTAYMELRSLRSDDTAVYYCARTSYYGGMDYWGRGTLVTVAS
VL: DIVMTQTPLSGPVTLGQPASISCRSSQSLVHSNGNTYLHWLQQRPGQPPRLLIYKVSNRFSGVPDRFSGSGAGTDFTLKISRVEAEDVGVYYCSQSTHVPRTFGRGTKLEIKR
notes: IgG
Take B4: the “rank in the VEGFR-3-Ba/F3 bioassay” value in test [1] and in test [2] was 3 rank throughout. For the same molecule, the “Fold-improvement with respect to Ig-1A” value turned out to be 3.5 fold in test [5] and 5.3 fold in test [6]. Also, the Kd in test [7] stood at 330 pM; in test [8], 201 pM. Also, the figures for the koff in test [7] and in test [8] were 0.001 s⁻¹ and 7.7e-05 s⁻¹, respectively. The kon in test [7] was 3e+06 M⁻¹ s⁻¹; in test [8] it was 390000 M⁻¹ s⁻¹.

B5: humanized IgG antibody derived from clone HW78 (antibody, V domains shown)
VH: QVQLVQSGAEVKQPGASVKVSCKARGYTFTGYNMYWVRQAPGQGLEWMGYIDPYNGDTTYNQKFKGRVTMTTDTSTGTAYMKLRSLRSDDTAVYYCARTSYYGGMDYWGRGTLVTVAS
VL: DIVMTQTPLSSPVTLGQPASISCRSSQSLVHSNGNTYLHWLQQRPGQPPRLLIYKVSNRFSGVPDRFSGSGAGTDFTLKISRVEAEDVGVYYCSQSTHVPRTFGQGTKLEIKR
notes: IgG
Turning to B5, the “rank in the VEGFR-3-Ba/F3 bioassay” value came to 4 rank in test [1] and 7 rank in test [2]. The entries for the “Fold-improvement with respect to Ig-1A” value in test [5] and in test [6] were 2 fold and 5.5 fold, respectively. Besides, the Kd was found to be 320 pM in test [7] and 342 pM in test [8]. Further, the koff in test [7] was 0.0018 s⁻¹; in test [8], roughly 0.00018 s⁻¹. Also, the results for the kon in test [7] and in test [8] were 5.4e+06 M⁻¹ s⁻¹ and 510000 M⁻¹ s⁻¹, respectively.
